Data reported in the Human Domainome abundance scans (Beltran et al. 2025).
± gives the uncertainty stated by the source.

assay: abundance fitness (aPCA) (normalised: wild type 0, dead -1); higher = more abundant; growth selection in yeast, the domain comes from the species named; settings: Homo sapiens

| Substance | abundance fitness |
| --- | --- |
| Transcriptional activator Myb K171W, P10242 | -0.598 ± 0.091 |
| Transcriptional activator Myb K182C, P10242 | -0.167 ± 0.11 |
| Transcriptional activator Myb K182D, P10242 | -0.548 ± 0.1 |
| Transcriptional activator Myb K182E, P10242 | 0.01 ± 0.062 |
| Transcriptional activator Myb K182F, P10242 | -0.383 ± 0.16 |
| Transcriptional activator Myb K182H, P10242 | -0.299 ± 0.16 |
| Transcriptional activator Myb K182I, P10242 | -0.181 ± 0.14 |
| Transcriptional activator Myb K182L, P10242 | -0.051 ± 0.068 |
| Transcriptional activator Myb K182M, P10242 | 0.037 ± 0.085 |
| Transcriptional activator Myb K182N, P10242 | -0.177 ± 0.15 |
| Transcriptional activator Myb K182P, P10242 | -0.678 ± 0.15 |
| Transcriptional activator Myb K182Q, P10242 | 0.136 ± 0.12 |
| Transcriptional activator Myb K182R, P10242 | 0.068 ± 0.056 |
| Transcriptional activator Myb K182S, P10242 | -0.161 ± 0.069 |
| Transcriptional activator Myb K182T, P10242 | -0.696 ± 0.14 |
| Transcriptional activator Myb K182V, P10242 | -0.176 ± 0.058 |
| Transcriptional activator Myb K182W, P10242 | -0.184 ± 0.076 |
| Transcriptional activator Myb K182Y, P10242 | -0.253 ± 0.17 |
| Transcriptional activator Myb K192A, P10242 | -0.247 ± 0.12 |
| Transcriptional activator Myb K192C, P10242 | -0.024 ± 0.12 |
| Transcriptional activator Myb K192D, P10242 | -0.448 ± 0.21 |
| Transcriptional activator Myb K192F, P10242 | -0.301 ± 0.29 |

| Substance | abundance fitness |
| --- | --- |
| Transcriptional activator Myb K192G, P10242 | -0.219 ± 0.053 |
| Transcriptional activator Myb K192H, P10242 | -0.156 ± 0.2 |
| Transcriptional activator Myb K192I, P10242 | -0.063 ± 0.14 |
| Transcriptional activator Myb K192L, P10242 | 0.004 ± 0.095 |
| Transcriptional activator Myb K192M, P10242 | -0.122 ± 0.16 |
| Transcriptional activator Myb K192N, P10242 | -0.162 ± 0.43 |
| Transcriptional activator Myb K192P, P10242 | -0.082 ± 0.12 |
| Transcriptional activator Myb K192Q, P10242 | -0.337 ± 0.16 |
| Transcriptional activator Myb K192R, P10242 | -0.04 ± 0.064 |
| Transcriptional activator Myb K192S, P10242 | -0.074 ± 0.093 |
| Transcriptional activator Myb K192T, P10242 | -0.232 ± 0.13 |
| Transcriptional activator Myb K192V, P10242 | -0.207 ± 0.074 |
| Transcriptional activator Myb K192W, P10242 | -0.334 ± 0.11 |
| Transcriptional activator Myb K192Y, P10242 | -0.535 ± 0.17 |
| Transcriptional activator Myb K204A, P10242 | 0.054 ± 0.091 |
| Transcriptional activator Myb K204C, P10242 | -0.317 ± 0.12 |
| Transcriptional activator Myb K204D, P10242 | -0.164 ± 0.15 |
| Transcriptional activator Myb K204E, P10242 | -0.062 ± 0.11 |
| Transcriptional activator Myb K204F, P10242 | -0.097 ± 0.19 |
| Transcriptional activator Myb K204G, P10242 | -0.166 ± 0.11 |
| Transcriptional activator Myb K204H, P10242 | -0.401 ± 0.39 |
| Transcriptional activator Myb K204I, P10242 | -0.055 ± 0.16 |

| Substance | abundance fitness |
| --- | --- |
| Transcriptional activator Myb K204L, P10242 | -0.07 ± 0.18 |
| Transcriptional activator Myb K204M, P10242 | -0.111 ± 0.11 |
| Transcriptional activator Myb K204N, P10242 | -0.153 ± 0.097 |
| Transcriptional activator Myb K204Q, P10242 | 0.192 ± 0.19 |
| Transcriptional activator Myb K204R, P10242 | 0.066 ± 0.12 |
| Transcriptional activator Myb K204T, P10242 | -0.012 ± 0.13 |
| Transcriptional activator Myb K204V, P10242 | -0.29 ± 0.22 |
| Transcriptional activator Myb K204W, P10242 | -0.443 ± 0.11 |
| Transcriptional activator Myb K204Y, P10242 | -0.16 ± 0.25 |
| Transcriptional activator Myb L172A, P10242 | -0.291 ± 0.076 |
| Transcriptional activator Myb L172C, P10242 | -0.268 ± 0.14 |
| Transcriptional activator Myb L172E, P10242 | -0.177 ± 0.089 |
| Transcriptional activator Myb L172F, P10242 | -0.35 ± 0.24 |
| Transcriptional activator Myb L172H, P10242 | -0.173 ± 0.14 |
| Transcriptional activator Myb L172I, P10242 | -0.354 ± 0.16 |
| Transcriptional activator Myb L172K, P10242 | -0.108 ± 0.1 |
| Transcriptional activator Myb L172M, P10242 | -0.175 ± 0.09 |
| Transcriptional activator Myb L172N, P10242 | -0.34 ± 0.14 |
| Transcriptional activator Myb L172P, P10242 | -0.486 ± 0.19 |
| Transcriptional activator Myb L172Q, P10242 | -0.117 ± 0.1 |
| Transcriptional activator Myb L172R, P10242 | -0.279 ± 0.056 |
| Transcriptional activator Myb L172S, P10242 | -0.236 ± 0.085 |

| Substance | abundance fitness |
| --- | --- |
| Transcriptional activator Myb L172T, P10242 | -0.359 ± 0.11 |
| Transcriptional activator Myb L172V, P10242 | -0.36 ± 0.073 |
| Transcriptional activator Myb L172W, P10242 | -0.303 ± 0.089 |
| Transcriptional activator Myb L173A, P10242 | -0.623 ± 0.11 |
| Transcriptional activator Myb L173C, P10242 | 0.012 ± 0.12 |
| Transcriptional activator Myb L173D, P10242 | -0.958 ± 0.22 |
| Transcriptional activator Myb L173E, P10242 | -0.621 ± 0.088 |
| Transcriptional activator Myb L173G, P10242 | -1.08 ± 0.11 |
| Transcriptional activator Myb L173I, P10242 | 0.253 ± 0.44 |
| Transcriptional activator Myb L173M, P10242 | -0.305 ± 0.12 |
| Transcriptional activator Myb L173P, P10242 | -0.656 ± 0.23 |
| Transcriptional activator Myb L173Q, P10242 | -1.13 ± 0.25 |
| Transcriptional activator Myb L173R, P10242 | -0.961 ± 0.078 |
| Transcriptional activator Myb L173S, P10242 | -0.933 ± 0.11 |
| Transcriptional activator Myb L173T, P10242 | -0.28 ± 0.12 |
| Transcriptional activator Myb L173V, P10242 | -0.127 ± 0.093 |
| Transcriptional activator Myb L173W, P10242 | -0.968 ± 0.11 |
| Transcriptional activator Myb L173Y, P10242 | -0.627 ± 0.31 |
| Transcriptional activator Myb L199A, P10242 | -0.05 ± 0.062 |
| Transcriptional activator Myb L199C, P10242 | -0.076 ± 0.1 |
| Transcriptional activator Myb L199D, P10242 | 0.011 ± 0.12 |
| Transcriptional activator Myb L199E, P10242 | -0.005 ± 0.081 |

| Substance | abundance fitness |
| --- | --- |
| Transcriptional activator Myb L199F, P10242 | -0.179 ± 0.097 |
| Transcriptional activator Myb L199H, P10242 | -0.228 ± 0.2 |
| Transcriptional activator Myb L199I, P10242 | -0.056 ± 0.1 |
| Transcriptional activator Myb L199K, P10242 | 0.025 ± 0.083 |
| Transcriptional activator Myb L199M, P10242 | -0.071 ± 0.095 |
| Transcriptional activator Myb L199N, P10242 | 0.043 ± 0.14 |
| Transcriptional activator Myb L199P, P10242 | -0.013 ± 0.1 |
| Transcriptional activator Myb L199Q, P10242 | -0.152 ± 0.12 |
| Transcriptional activator Myb L199R, P10242 | -0.045 ± 0.057 |
| Transcriptional activator Myb L199S, P10242 | 0.041 ± 0.068 |
| Transcriptional activator Myb L199T, P10242 | -0.043 ± 0.092 |
| Transcriptional activator Myb L199V, P10242 | 0.032 ± 0.065 |
| Transcriptional activator Myb L199W, P10242 | -0.167 ± 0.1 |
| Transcriptional activator Myb L199Y, P10242 | -0.175 ± 0.21 |
| Transcriptional activator Myb M189A, P10242 | -0.343 ± 0.068 |
| Transcriptional activator Myb M189C, P10242 | -0.311 ± 0.095 |
| Transcriptional activator Myb M189D, P10242 | -0.384 ± 0.094 |
| Transcriptional activator Myb M189F, P10242 | -0.045 ± 0.16 |
| Transcriptional activator Myb M189G, P10242 | -0.268 ± 0.05 |
| Transcriptional activator Myb M189I, P10242 | -0.313 ± 0.19 |
